Assay results as given in the Human Domainome abundance scans (Beltran et al. 2025).
± gives the uncertainty stated by the source.

B1: Nanos homolog 2, residues 63 to 115; numbered along this chain, P60321 (parent)
chain: CNFCKHNGESRHVYSSHQLKTPDGVVVCPILRHYVCPVCGATGDQAHTLKYCP

Variants of: B1
Test: abundance fitness (aPCA) (normalised: wild type 0, dead -1); higher = more abundant; growth selection in yeast, the domain comes from the species named
Settings: Homo sapiens

Abundance fitness of substitutions, site by site:
E9: K -0.007 ± 0.079; G -0.274 ± 0.056
S16: H -0.287 ± 0.12; P -0.459 ± 0.16; A -0.117 ± 0.063; N 0.023 ± 0.12; T -0.335 ± 0.12; Q -0.042 ± 0.055; C 0.077 ± 0.14; E -0.163 ± 0.099; M -0.047 ± 0.1; W -0.557 ± 0.08; G -0.035 ± 0.073; K -0.262 ± 0.11; D -0.08 ± 0.13; L -0.456 ± 0.074; Y -0.489 ± 0.088; F -0.594 ± 0.14; R -0.135 ± 0.067; V -0.562 ± 0.095; I -0.406 ± 0.17
H12: T 0.035 ± 0.11; S 0.126 ± 0.066; C -0.06 ± 0.066; V -0.091 ± 0.08; I -0.043 ± 0.16; L -0.036 ± 0.11; P -0.069 ± 0.14; R -0.049 ± 0.059; D 0.188 ± 0.085; W -0.148 ± 0.14; Y -0.101 ± 0.13; M -0.012 ± 0.078; Q -0.013 ± 0.11; G 0.056 ± 0.084; K 0.096 ± 0.14; F -0.031 ± 0.14; E 0.226 ± 0.063
V13: T 0.157 ± 0.085; G -0.007 ± 0.087; N 0.064 ± 0.099; H -0.087 ± 0.22; I -0.195 ± 0.15; S -0.008 ± 0.069; R -0.06 ± 0.065; E -0.058 ± 0.094; C 0 ± 0.07; A -0.084 ± 0.077; D -0.013 ± 0.13; Y -0.125 ± 0.11; W -0.04 ± 0.11; K 0.113 ± 0.078; L -0.05 ± 0.074; Q -0.068 ± 0.1; M 0.056 ± 0.092; P -0.477 ± 0.13
T21: G -0.004 ± 0.11
N7: H -0.036 ± 0.13; C -0.316 ± 0.097; R -0.036 ± 0.083; W -0.47 ± 0.056; D -0.513 ± 0.1; S -0.054 ± 0.061; F -0.241 ± 0.11; I -0.432 ± 0.17; Q -0.263 ± 0.11; K 0.021 ± 0.085; L -0.311 ± 0.062; M 0.173 ± 0.12; V -0.364 ± 0.073; G -0.144 ± 0.1; P -0.764 ± 0.093; T -0.122 ± 0.1; A -0.213 ± 0.11
S10: Q 0.066 ± 0.11; N -0.198 ± 0.14; F -0.251 ± 0.082; A -0.172 ± 0.1; H 0.022 ± 0.08; Y -0.328 ± 0.16; K 0.079 ± 0.11; D -0.158 ± 0.14; T -0.248 ± 0.12; E 0.025 ± 0.1; I -0.149 ± 0.069; W -0.442 ± 0.086; R 0.003 ± 0.076; P 0.02 ± 0.078; L -0.194 ± 0.059; V -0.296 ± 0.083; C -0.321 ± 0.099; G 0.012 ± 0.065
V25: C -0.001 ± 0.089; H -0.489 ± 0.18; F 0.166 ± 0.17; E 0.015 ± 0.067; D -0.148 ± 0.1
R11: T 0.08 ± 0.13; W -0.408 ± 0.093; P 0.172 ± 0.16; I 0.063 ± 0.12; A -0.034 ± 0.081; M -0.156 ± 0.12; D 0.167 ± 0.095; S -0.047 ± 0.1; K -0.317 ± 0.17; G -0.084 ± 0.067; V -0.007 ± 0.091; H -0.039 ± 0.19; Q -0.077 ± 0.18; C -0.497 ± 0.19; N -0.131 ± 0.11; F 0.07 ± 0.16; L -0.049 ± 0.077
G8: S -0.08 ± 0.077; E -0.119 ± 0.11; A -0.196 ± 0.075; D -0.223 ± 0.096; C -0.313 ± 0.097; N -0.161 ± 0.11; L -0.23 ± 0.065; Q -0.084 ± 0.098; V -0.306 ± 0.085; F -0.202 ± 0.12; W -0.342 ± 0.12; K -0.174 ± 0.13; T -0.359 ± 0.1; H -0.092 ± 0.059; P -0.343 ± 0.1; R -0.063 ± 0.076; M -0.137 ± 0.069
G24: S -0.311 ± 0.092; R -0.413 ± 0.092; T -0.563 ± 0.13; Q -0.152 ± 0.064; V -0.882 ± 0.081; F -1.02 ± 0.26; I -0.983 ± 0.47; N 0.113 ± 0.21; P -0.478 ± 0.16; H -0.381 ± 0.18; Y -0.895 ± 0.25; C -0.496 ± 0.19; M -0.461 ± 0.14; K -0.353 ± 0.094; E -0.115 ± 0.079; W -1.12 ± 0.27; D -0.108 ± 0.065; L -0.527 ± 0.064
P22: N -0.12 ± 0.22; K 0.306 ± 0.13; R -0.079 ± 0.075; L -0.067 ± 0.096; M -0.129 ± 0.076; F -0.383 ± 0.14; C 0.002 ± 0.15; W -0.321 ± 0.17; I -0.158 ± 0.13; A -0.048 ± 0.09; G -0.041 ± 0.084; T -0.084 ± 0.092; V -0.053 ± 0.069; E -0.184 ± 0.1; H -0.107 ± 0.19; D -0.112 ± 0.1; Y -0.121 ± 0.086; S 0.037 ± 0.069
